Measured values as given in a protein production outcome set (Wang et al. 2014).

Experiment: label from the status in PepcDB records

Sequence | protein production
MRLIRSVLCSSSAGFGQGFCSPSLRRHLSARFPRGHGNALANFSSCARSRVHAYSSASSATSVGVPVAKMRFIDIGANLLDEMYTGQYNDKPYHPPDLSAVLERAWAAGLEKLMITAGSLKEARAALELAKTDERLYCTVGCHPTRCKEFEDHPGGPEAYLQELLEVLKEGQALGKVVAVGECGLVATDYERLHFCDADTQKKYFEAQFRLAKESGLPMFLHLRAAADDFLDITGRHLGDFPRGGVVHSFDGTAEEAARVLAVPQLAIGINGCSLKTDDNLAVVGGLPLERIMLETDCPWCEIRPTHAGRKHVSAEALAGVTGAKDRKKFMPGCQVKSRNEPANIRQVLEVVAGVKGRTDLEAVADVIFGNTERMFFPTA | failed
MTKQIKVGVIGVGQMGQYHAEIYQKLPQVELVAICEFNDERRAEMAEKFQCKAYKDYHELLANTEIEAVIIVLPDNMHRDCVEEAVKHKKHILLEKPLAKELEDGKAMYELTKDYDKVFTVGFLLRFDPRFNMIKQRLDNGELGDIIHLYCRRNSPITGPKRYIGASDLSMHVMIHDIDYINWYMDSEPVKVIAKSRSVLLKEYGMNDVIYAIVTYENGAIACLEACWVLPENSPTIIDDKLELVGTKGVAYVDSCDHGVRFVSEKGVSYPDSRHWYYTNGEVSGDLAEEVMAFINNVANNTKSIITPKEAYDSLRVVDAIERSIAEGKEVSL | failed
IDRSTHFALRYRTLCHQQAQFKSPLRGLRGTRASLIPHQLHIAAEVGNRVNPRVLLADEVGLGKTIEAGMILQNQLFAEKVQRVLIIVPETLQHQWLVEMLRRFNLHFALFDEERCNDFDLDAVNPFTTESLIICSLNWLETHPNRVELVLNAQFDCLIVDEAHHLVWSETSPSTAYLLVEQLARIIPSVLLLTATPE | failed
MNISIFKEKSLKWQLLRRMFLLLICFLIILEIFQYFFLRHYICKDKEMLLESRINNVAHLMTTIDSEASLKKNSGYLIKKSLYFDTTSSVIDKNGNVLLFHIKDKHPTSPPIISASEYKAIMKREGNLEGYTITKNKCGEPQITIWRKIGNLNSPLGLIQLTTPYHSAAQFLYKQIYIYIVACVLILILSILIGGTLIKHTLKPLYRIAHTLNNLTVGDLNKRLSENNNQVEIDHLATAFNNMFSRIEISFNREKELKKKMQQFISDASHELRTPLTSIRGFVEVLLIGSYKDEKKLKLALNTILIESERLTELVNNLLTLTRLDRSTHTEMTKQNMSDIIEEIYPQLKILAKNRQVNLNLYDNNAYFLGNKNQIKQVIFNIVQNSINYTDKETGIITLSLSIEDTLFILKISDNGIGIASKDLPHIFDRFFRSETHRSRESGGYGLGLSIAKSIIQSHGGEISTKSIINQGTSFYIKLKRI | failed
MGACMKPIGSDGKPIPTPPSLLSFWEVVGVYGRLGLWLGALFIGAVGIFILMDQPPFVQMDWSGLVQQVAAVVALIAIVIPALQVFFALTNRASGSLRPGRYGRLFERRFARFTPQQIEDILQDARAILATMSDSPKRRAWARWVEWLEQRSNLPLAERSGLKIGVYHPRRSKLWIDGAGVALVGALGSWLIWDQRSWMGWAFLGVLGSLFTWGLLATLTERLELSDDSLSYYAFRRQQWSVPRQHVALREAGSSEYQIYDVRTGRLLGEVKGETFGADIVEALADLFPPWLGDEVG | failed
MKKRLFVLSLILLVALDQLSKFWIVSHIALGEVKPFIPGIVSLTYLQNNGAAFSILQDQQWFFVVITVLVIGYAIYYLATHPHLNIWKQLALLLIISGGIGNFIDRLRLAYVIDMIHLDFVDFAIFNVADSYLTVGVILLLICLWKEEDYGN | failed
KAPNLYMTDTTGTYRYLYDVQAKYTILFFWDSQCGHCQQETPKLYDWWLKNRAKGIQVYAANIERKDEEWLKFIRSKKIGGWLNVRDSKNHTDFKITYDIYATPVLYVLDKNKVIIAKRIGYENLDDFLVQYEKSLKTK | not failed
MNKFELYHPILTEHFALDWLTHSKVRDIFELRHDPEIAKASDRDIDATIEDTTTYVNQMMRLVMNNEALIWGITDQNTHEFLGTFCIWDFDQAQKSASVRFEILRNQQHKGIMSEVLRRMSIFSFEELGLEKLFATALKNNTIARTLLEQVGFSAVASQTDNQNITLELNRH | failed
MTQHPFISRVAVRNYKSIGYCDVNLRPLTYLVGHNGAGKSNFMDALHFVCDALSYSLDSALNERGGINEVRRRSGGHPTHFALRVEFVMQSGQAGRYGFVIGALKNGGYEVQREECVVAGIGKGPFFRIEKGKLRDSSETTFPSVTADRLALVAASGLTAFRPVFDALTAMGFYNLNPKLMRELQKPQDGRLLRPAGENIASVIGHLEKVAPAQMALIQEYLHSVAPMVHGVERKPIGPMETLEFRQDMAGSKHPWRFLAQNMSDGTLRALGVLSALLQGNVDYSPTLIGIEEPETALHPAASAALREALVRASETTQVLVTSHSPDLLDDHSIDADAVLAVVSEAGETKVAPLDEGSRQVMRDHLFSAGELLRMNQLAPDRASLEQQDKAASGDLFGETESVLEHHHHHH | not failed
SLMAGSFCWRMLGLVSKVGNRARCFSSVAASEEELLDFSGSELQFNSCSLHLSLHPFFNFLLGIHSCFVCKESKTDVKRCVVTQCGKFYHEACVKKYPLTVFESRGFRCPLHSCVSCHASNPSNPRPSKGKMMRCVRCPVAYHSGDACLAAGCSVIASNSIICTAHFTARKGKRHHAHVNVSWCFVCSKGGSLLCCESCPAAFHPDCLNIEMPDGSWFCNDCRAGKKLHFQDIIWVKLGNYRWWPAEVCHPKNVPPNIQKMKHEIGEFPVFFFGSKDYYWTHQARVFPYMEGDRGSRYQGVRGIGRVFKNALQEAEARFREIKLQREARETQESERKPPPYKHIKVNKPYGKVQIYTADISEIPKCNCKPTDENPCGFDSECLNRMLMFECHPQVCPAGEFCQNQCFTKRQYPETKIIKTDGKGWGLVAKRDIRKGEFVNEYVGELIDEEECMARIKHAHENDITHFYMLTIDKDRIIDAGPKGNYSRFMNHSCQPNCETLKWTVNGDTRVGLFAVCDIPAGTELTFNYNLDCLGNEKTVCRCGASNCSGFLGDRPKTSTTLSSEEKGKKTKKKTRRRRAKGEGKRQSEDECFRCGDGGQLVLCDRKFCTKAYHLSCLGLGKRPFGKWECPWHHCDVCGKPSTSFCHLCPNSFCKEHQDGTAFSCTPDGRSYCCEHDLGAASVRSTKTEKPPPEPGKPKGKRRRRRGWRRVTEGK | not failed
MMGNDSYSSNRGSSRDVLSFLQNFLGGFYAKYGIEVKLVGGLSLSKFYYAFDAERNQFLARHFLPVLSYIKKDFNARAALGIVNVDIYEPGFNFIFGLAHPGLKVAVVSLYRLYPEFYGNPPDRKLLKERALKEVMHELGHVFGLGHCPNPKCVMHFSNSIIDTDIKSWMYCESCLRKLEKNLARSHVLEHHHHHH | failed
LTSSNALRGDAHSRLAAHRGLLERTSRTTRVAGILRDAIIDGTFRPGARLSEPDICAALDVSRNTVREAFQILIEDRLVAHELNRGVFVRVPTAEDITELYICRRVVECAGVNGFDPATGDLSRVAEALDLADERYAVEDWTGVGTADIHFHSALASLNNSNRIDELMRSVWNEARLVFHVMDDAHRFHGPYLTRNHEIYDALAAGNTEAAGQLLKTYLEDAEAQILGAYRPVSG | not failed
MQRQNKQQEDSFMIPETSYDIVVVGAGPAGSTAALYAAKKGASVLLLDKKREIGSPIQCAGFLPDASEVKALLPEADLPGALKNYPDSCVLQPIRTQRIIPPNCNAKEFAVKGAVLDRRRYDQYLAEQAAEAGAELMVKTRVTKIQGTTVETSGIFGKHTIRAKAIIGADGPNSLVAKSRGLIMKPEARETSVAIEYQVRNVDIDPDALEMYFGKDYVPGGYAWVFPEGKDRANVGIGIRSCMAEKGVSAKEYLHRFIKKHPVAGPKLKNAVIMNVIAGIIPVNGAPANTATADSLVVGDAAGHIIATNGGGIPPAMIAGKIAGETAAEFAAGKCDLEEYDRRWRAQFGQALETSVQARQIMDGIMKSDALMNAAFRFISPEQMKVMQCGKLPGPVKLGLQALSRGKK | failed
KRFEFVGWGSRQLIEFLHSLGKDTSEMISRYDVSDTIAKYISKEGLLDPSNKKKVVCDKRLVLLFGTRTIFRMKVYDLLEKHYKENQD | not failed
MAEPKQSSLSEVKTNVIGSRKEEKESMFHGKETHGRSEDIDEKTRVDDVKGPGVLGRMMEEMEAIVDAVTPNKSSDK | failed
NSDLGGTLQFTSSNPDKAFGARLSQTLGSYDTSRTFMRVDTGEYNGLSAYVSGEKYDADAWKGHNNPQKSDAVNAKINYNFGDNRVSFFHSTSSHDEANLPSLSPSIIQRLGYNWSYYTPDWTRAVNAANGIYTGGVTSAGDATYNASSLRDDELDILNGNFSLTDDLVLDATVYHHHDSGRGNSYYPFVYTSGATTVPSNAIRSTVYGIDRTGFQSSLTYFLGQHEIQAGFWIQSNKNDIARYLFDTTNATPQNHIVKTNGLPLAATVLDQSYNDLTRQFYLRDTYTLLDDRLKLEFGAKNTVTTSTAKGKGGGYASGSLEARDRFLPQVGATYKLNDSDEVFTSYSENMAAFPSGGYSPFFTTQTAVDAQNGFKDLKPETSKTVELGLRRSTKLYSASAAVYNTRFDNRLVAITNCTGIVICQNGVANVGSVTSRGLELSLGLTPNENWRWSNSMSYNHSTYDDDYASGGSTVQVKGKTVVDTPKLMYSSSLDWNWEHWNAGLQGNYISKRYYTYTNDSSVSGYWLANANLGYDCGKLGALKDTTVSLNMVNLFDKRYISTLNTDASAAADPSGNLQILQVGTPRSAFVTLGVKL | failed
MRELTSNEMNNVSGGDLASRLEASIVGSVAGFFAGSIWGGTRGGDGGGILGVGSIGQGVGMIYGGIAGAIGGAIGAFVIDKTLTYTYTTGFMNSLFSGTFAK | failed
MKRATLPRGRVAGLTAGSLAAVGLALALTLGGVSVVPSGFDGIEDLPLPGGADLGDHPYTVTAELQDVLSLVPHSAVRVNDVAVGRITGIELGEDDWSARVTMEINGEVRLPADATARLEQSSLLGEKYVQLVAPAKETGTGRLTDGSVIPLARTSRNTEVEEVFGALSLLLNGGGVNQLKTITRELNAALGGREPEVRSMLKRVNTLVGDLDDHRGDITDALDAVNRLSSTLATRKDDVGTVLTDLSPGLKTLERQRGSLLTMLRSLDTLSGVAVSTINASKDDMIADLKAVAPTLRALADAGTDLPDSLQVLLTYPFTDEVLRGVKGDYLNTYLSMVAVPGTEVIPPLVDGDTPGPTASATAQDGPDPAAKNPAAKNPISRKRSSGQRGSASPLPLPSVSGAGPASGGEHGLEHHHHHH | not failed
QIGVPPSGPMDDLSFRLGNTALGNPEGAPGLEFTMAGPALRFTHATTVCVTGADVTVTVNGNTANTWEPITVPENGLLDVGSADGSGLRGYILFEGGLDVPRYLGSASTFTLGQFGGHGGRVLRTSDVLRTVSDHLPETVPGVVPEESRPALTSDWELKVVEGPHGAPEFFEREDIEELYAAEYEVHFNSARTGVRLIGPKPRWARNDGGEAGLHPSNIHDTAYSVGALDFTGDTPILLGPDGPSLGGFVCPVTVVTGERWKLGQLRPGDKVRFVPIRSVEAPSVKELGAAR | failed
MNINLSVPYAAEGPGPTINTLGQVDGEDVVSISSADLDETEGNLNMTTVSVRSGMTLSQVISRWLFTDDTIVPIEQVFPPGQSTEEVEESNRTAFISSESSATIAAMNYLNIPVEVEVAEVLTDSAATGIFEPGDKLLSIDGTAISTPGDAQTIVRSKAPGDEITISYERNDAESQATITLREHPDDSSVALLGISMLSVPSSAIEVDYNLEDIGGPSAGMMFSLAVVDKLSPGALNGGKFVAGTGTIAEDGSVGPIGGIAHKVRAAEDAGAEVFLSPADNCAEAMSAKPQDMTILKVDSLSQAIDQMAAYNEGLEHHHHHH | not failed
MTRKKLNLSYITNESMRKATFNKRKKGLVKKIHELSVLCGIEACAVIYSPFNSNPEVWPSNSEVKNVMENFEMLTKLEQEKKMVSHEGFIRQNISKTMESNNKKMIDNAERTMKEAMFQLLSGKGEKLNLTDRNREDLCKYIDQYLKELYHHKNKTINQSHIEPGESSGATNAMTPTSVVENPNFNHLSHNQYQYQQQFGYPILVQDGIYNPSQIQNQHEEWLDDHMMNHSKEISHPLMDDNNFYYQQP | not failed
